Entries after “also recorded” stand apart in the source; their conditions may differ. Where two headings read alike, the source gives them in different places.
How the values were obtained:
BxPC-3 cell line = test: Transwell matrigel invasion assay, BxPC-3; type: cell-based, Human; conditions: 24 hrs; for invasive rate: ONCO P-8 400 ng/ml or IL-8 200 ng/ml alone
Description: (§1) The invasion ability of cell was performed by using 8 μm pore size transwell (Corning Fluor® Blok™). The transwell insert was coated with 60 μl matrigel (300 μg/ml in serum-free medium, BD Bioscience) overnight at 37° C. in 5% CO2 atmosphere. 2.5×10^4 cells in 0.2 mL of serum-free growth medium were seeded into the upper chamber coated with matrigel and then treated with IL-8 (200 ng/ml) with/without ONCO P-8 (400 ng/ml). After incubation for 24 hrs at 37° C. in 5% CO2, membrane of upper chamber was fixed with methanol and stained with propidium iodide (PI). The invasive cells in the bottom of membrane were imaged and counted by using an inverted fluorescence microscope (Observer.Z1, Zeiss) in five random fields of each specimen (magnification, ×100).

[1] = test system: gemcitabine-resistant cell (BxPC-3GR); test: Migration of Gemcitabine-resistant cancer cells; type: cell-based, Human; conditions: ONCO P-8 400 ng/ml, IL-8 200 ng/ml
Description: (§2) The drug concentration: ONCO P-8 (400 ng/ml), Reparixin (200 nM), IL-8 (200 ng/ml), statistical significance: *P<0.05, **P<0.01,***P<0.001.

BxPC-3GR [2] = test: Transwell invasion assay, BxPC-3GR; type: cell-based, Human; conditions: Gemcitabine 100 nM; for invasion rate: ONCO P-8 400 ng/mL or IL-8 200 ng/mL, versus control
Description: as §1
(§3) The Gemcitabine-resistant cancer cells treated by Gemcitabine (100 nM) with ONCO P-8 (400 ng/mL), or treated by Gemcitabine with ONCO P-8 and IL-8 (200 ng/mL), or treated by Gemcitabine with IL-8 respectively for invasion ability assay.
as §2

MIAPaCa2 cells = test: MTT cytotoxicity of Gemcitabine, parental MIAPaCa2; type: cell-based; conditions: Homo sapiens, MIA PaCa-2
Description: (§4) Human pancreatic cancer (PDAC) cell lines, BxPC3 and MIAPaCa2 were used in the present invention. Gemcitabine resistant BxPC3 cell line (BxPC3GR) was generated as a chemoresistant cell line against gemcitabine by culturing BxPC3 cells in media containing increasing concentrations of gemcitabine and then maintained them at 0.5 μM gemcitabine. Gemcitabine resistant MIAPaCa2 cell line (MIAPaCa2GR) was generated by culturing MIAPaCa2 cells in media containing increasing concentrations of gemcitabine and then maintained them at 0.12 μM gemcitabine. […] MIAPaCa2 and MIAPaCa2GR are maintained in DMEM with 10% FBS, 1% penicillin-streptomycin, and 1% L-Glutamine.
(§5) To validate the establishment of Gemcitabine-resistant pancreatic ductal adenocarcinoma (PDAC) cell lines, MTT of Gemcitabine gradient was implemented with parental cells and Gemcitabine-resistant (GR) cells.
(§6) BxPC-3 and BxPC-3GR treated with gemcitabine from 0 nM to 100 nM, and measured by MTT (FIG. 3a). Similarly, MIAPaCa2 and MIAPaCa2GR also treated with gemcitabine from 0 nM to 100 nM, and measured by MTT (FIG. 3b).

BxPC-3GR cells = test: MTT cytotoxicity of Gemcitabine, Gemcitabine-resistant BxPC-3GR; type: cell-based; conditions: Homo sapiens
Description: as §4, §5, §6

MIAPaCa2GR cells = test: MTT cytotoxicity of Gemcitabine, Gemcitabine-resistant MIAPaCa2GR; type: cell-based; conditions: Homo sapiens
Description: as §4
To validate the establishment of Gemcitabine-resistant pancreatic ductal adenocarcinoma (PDAC) cell lines, MTT of Gemcitabine gradient was implemented with parental cells and Gemcitabine-resistant (GR) cells. […]

BxPC-3GR [3] = test: Cell proliferation assay (CCK-8), BxPC-3GR; type: cell-based, Human; conditions: Gemcitabine 100 nM, ONCO P-8 400 ng/mL (47 nM), IL-8 200 ng/mL, 24 hours
Description: The Gemcitabine-resistant cancer cells treated by Gemcitabine (100 nM) with ONCO P-8 (400 ng/mL, 47 nM), or treated by Gemcitabine with ONCO P-8 and IL-8 (200 ng/mL, 23.8 nM) for 24 hours.

BxPC-3 cells = test: MTT cytotoxicity of Gemcitabine, parental BxPC-3; type: cell-based; conditions: Homo sapiens, BxPC-3 parental cells
Description: as §4, §5, §6

CXCR1 = target: T1, CXCR1 (Homo sapiens, UniProt P25024); test: Indirect ELISA binding assay, CXCR1 complex formation; conditions: versus IL-8
T1 sequence (P25024 1-350): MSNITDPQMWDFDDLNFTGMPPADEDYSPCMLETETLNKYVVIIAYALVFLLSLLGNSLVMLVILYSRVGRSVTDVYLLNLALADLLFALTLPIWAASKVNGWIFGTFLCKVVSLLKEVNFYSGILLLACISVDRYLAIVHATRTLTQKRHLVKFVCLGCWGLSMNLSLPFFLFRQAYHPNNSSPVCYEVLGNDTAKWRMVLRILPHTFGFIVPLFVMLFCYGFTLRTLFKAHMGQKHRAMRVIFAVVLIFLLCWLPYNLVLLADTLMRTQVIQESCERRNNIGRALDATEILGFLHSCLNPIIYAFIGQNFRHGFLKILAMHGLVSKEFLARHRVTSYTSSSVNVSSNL
Source text: (§7) The Kd Equation include: (1) i=A450nm/A^max450 nm, then i=Ligand/Ligand^max; (2) 1/(1−i)=(Ligtot/i)/Kd−b, b=fqSrec/Kd.

BxPC-3 xenograft tumor = type: in vivo, BALB/c nude mice
Description: The PDAC xenograft tumor model treated by ONCO P-8, or treated by Gemcitabine with ONCO P-8, or treated by Gemcitabine, or treated by Gemcitabine, or treated PBS respectively. Gemcitabine administrations were about 100 mg/kg subject weight twice per week. ONCO P-8 administrations were about 500 μg/kg subject weight three times per week. […] The survival rate of xenograft model treated by ONCO P-8 or treated by Gemcitabine with ONCO P-8 is about 100%.
To evaluate the effect of ONCO P-8 in vivo, it was used the BxPC-3 model in 4-week old male BALB/c nude mice in the present invention. Mice were inoculated BxPC-3 cells subcutaneously. After 7 days, mice were treated with PBS or ONCO P-8 (500 μg/kg) by i.p injection three times a week. The initiation tumor size was 128.5±47.8 mm^3 in first treatment.

CXCR2 = target: T2, CXCR2 (Homo sapiens, UniProt P25025); test: Indirect ELISA binding assay, CXCR2 complex formation; conditions: versus IL-8
T2 sequence (P25025 1-360): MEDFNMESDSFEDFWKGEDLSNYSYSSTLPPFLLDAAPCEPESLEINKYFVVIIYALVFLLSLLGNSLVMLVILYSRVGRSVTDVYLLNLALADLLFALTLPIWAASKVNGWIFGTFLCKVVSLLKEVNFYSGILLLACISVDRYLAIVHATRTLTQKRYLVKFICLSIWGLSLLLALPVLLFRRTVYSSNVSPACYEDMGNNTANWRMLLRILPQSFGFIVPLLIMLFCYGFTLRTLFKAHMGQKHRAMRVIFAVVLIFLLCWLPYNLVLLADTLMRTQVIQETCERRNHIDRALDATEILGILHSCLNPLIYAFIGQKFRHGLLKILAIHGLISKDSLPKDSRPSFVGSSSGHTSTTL
Source text: as §7

BxPC-3 = test: Colony formation assay, BxPC-3; type: cell-based, Human; conditions: IL-8 200 ng/ml, ONCO P-8 400 ng/ml, 2 weeks
Description: Cells were Seeded in a 24-Well Plate at a Density of 1000 Cells Per well, treatment were executed 24 hr after seeding. The treatment included that the cells were treated with IL-8 (200 ng/ml), IL-8 (200 ng/ml) plus ONCO P-8 (400 ng/ml), or ONCO P-8 (400 ng/ml). After 2 weeks, the medium was removed and cells were washed with PBS and stained for 30 min in 0.1% w/v crystal violet (dissolved in methanol; 32675, Fluka® Analytical, USA). Area of colonies were identified by camera and analyzed by ImageJ analysis software. The results were calculated as follows: Colony formation rate (%)=(Treatment area of the colony/Control area of the colony)×100%

MIAPaCa2GR = test: Transwell invasion assay, MIAPaCa2GR; type: cell-based, Human; conditions: Gemcitabine 100 nM
Description: as §1, §3

[4] = test system: CSC markers (NANOG, OCT4, SOX2, ALDHA1, BMI-1, KLF4, Nestin) in BxPC3GR-derived spheroids; test: RT-PCR of CSC markers in BxPC3GR-derived spheroids; type: cell-based, Human; conditions: ONCO P-8 400 ng/ml (47 nM), Gemcitabine 100 nM
Description: FIG. 12A-12G illustrate RT-PCR analysis was performed to determine the effect of ONCO P-8 treatment on the expression levels of NANOG (FIG. 12A), OCT4 (FIG. 12B), SOX2 (FIG. 12C), ALDHA1 (FIG. 12D), BMI-1 (FIG. 12E), KLF4 (FIG. 12F) and Nestin (FIG. 12G) in BxPC3GR-derived spheroids with Gemcitabine. Drug resistance related CSC marker: NANOG, OCT4, SOX2. Cell invasion related CSC marker: ALDHA1, BMI-1. Tumor growth related CSC marker: KLF4, Nestin.
All real-time PCR reactions were performed with specific primers and taqman probes or probes from the Universal Probe Library (Roche Applied Science) in the StepOneTMReal-Time PCR system (Applied Biosystems™). 18 s was used as an internal loading control. The reactions were performed as follows: denaturation for 2 min at 50° C. and 10 min at 95° C., 50 cycles of 95° C. for 15 sec, and 60° C. for 1 min. […] Sequences of all primers used are listed below (F: Forward primer; R: Reverse primer): […]

[5] = IL-8 200 ng/mL + ONCO P-8 400 ng/mL versus IL-8 group

IL-8: ELR-CXC chemokine CXCL8 (IL-8), ligand of CXCR1 and CXCR2 [reference compound]
invasive rate (BxPC-3 cell line): can enhance the cell invasion | migration rate [1]: can enhance the cell migration | invasion rate (BxPC-3GR [2]): can enhance

Nc1ccn([C@@H]2O[C@H](CO)[C@@H](O)C2(F)F)c(=O)n1 [Gemcitabine]
IC50 (MIAPaCa2 cells): 251 nM | IC50 (BxPC-3GR cells; BxPC-3GR cells, read-out: IC50-value in BxPC-3GR cells): 236 nM | IC50 (BxPC-3GR cells; BxPC-3GR resistant cells, read-out: IC50 (nM) Resistant cells): 236 nM | IC50 (MIAPaCa2GR cells): 8620 nM | proliferation rate (BxPC-3GR [3]): enhanced | IC50 (BxPC-3 cells): 6.13 nM

B1: ONCO P-8: chemokine receptor antagonistic modified peptide (SEQ ID NO: 1), analogous protein of CXCL8 (IL-8), antagonist of CXCR1 and CXCR2 (protein)
chain: GSKELRCQCIRSYSKPFHPKFIKELRVIPASQFCANTEIIVKLSDGRELCLDPKENWVQRVVEKFLKRAENS
modifications: ONCO P-8
bind to CXCR1 tighter than IL-8 (CXCR1): 3-4 fold | survival rate / lifespan (BxPC-3 xenograft tumor; BxPC-3 xenograft): improve the survival rate | survival rate (BxPC-3 xenograft tumor; BxPC-3 xenograft, FIG. 13C): about 100% | tumor growth (tumor size) (BxPC-3 xenograft tumor; BxPC-3 xenograft, ONCO P-8 500 μg/kg i.p. three times a week, Gemcitabine 100 mg/kg twice per week): significantly inhibited the tumor growth | body weight of mice (BxPC-3 xenograft tumor; mouse, in vivo, ip): didn't lead to reduce the body weight | bind to CXCR2 tighter than IL-8 (CXCR2): 3-4 fold | invasive rate in presence of CXCL8 (BxPC-3 cell line; IL-8 200 ng/ml with ONCO P-8 400 ng/ml): can neutralize the effect of CXCL8 to reduce the invasive rate | invasive rate (BxPC-3 cell line): can reduce the invasive rate | migration rate [1]: can reduce the migration rate; also recorded: can attenuate | colony formation rate (BxPC-3): can neutralize the effect of CXCL8 to reduce the colony formation rate | invasion rate in presence of IL-8 (MIAPaCa2GR; [5]): can prevent significantly invasion rate | invasion rate (MIAPaCa2GR; ONCO P-8 400 ng/mL, versus control): decreases invasion rate; also recorded: can inhibit the invasion ability | invasion rate in presence of IL-8 (BxPC-3GR [2]; [5]): can prevent significantly invasion rate; also recorded: can neutralize the effect of CXCL8 to reduce the invasive rate | invasion rate (BxPC-3GR [2]): decreases invasion rate; also recorded: can reduce; also recorded: can inhibit the invasion ability; also recorded: can attenuate | expression of CSC properties markers [4]: can reduce the expression of these CSC properties markers | proliferation rate (BxPC-3GR [3]): significantly attenuated; also recorded: inhibited
